Data reported in patent US20020102534A1 (INSTITUT PASTEUR AND INSTITUT NATIONAL DE LA SANTE ET DE LA …, published 2002).

Biological target: the molecule itself
Assay: yeast two-hybrid bait-prey matrix (LacZ and HIS3 reporters)

Protein	binding result
truncated HCV capsid protein C-delta-115 (other, also called CD115; CoreD115) MSTNPKPQRKTKRNTNRRPQDVKFPGGGQIVGGVYLLPRRGPRLGVRATRKTSERSQPRGRRQPIPKARRPEGRTWAQPGYPWPLYGNEGCGWAGWLLSPRGSRPSWGPTDPRRR	binds
HCV core protein, full-length (capsid) (other, mature; also called capsid protein; p22) MSTNPKPQRKTKRNTNRRPQDVKFPGGGQIVGGVYLLPRRGPRLGVRATRKTSERSQPRGRRQPIPKARRPEGRTWAQPGYPWPLYGNEGCGWAGWLLSPRGSRPSWGPTDPRRRSRNLGKVIDTLTCGFADLMGYIPLVGAPLGGAARALAHGVRVLEDGVNYATGNLPGCSFSIFLLALLSCLTVPASA	no binding
